In general, Kd refers to the constant that tells how readily two partners part at equilibrium. Lower therefore signals a tighter complex.

In article doi:10.1101/2025.06.29.662183 one finds Kd data, which are given here for 1 substance.

For this assay, the target named is CHIKV nsP2 protease (Chikungunya virus). Briefly: BLI. For orientation: BLI is a label-free optical method that tracks binding on a fibre tip over time.

pantinin-1 (peptide) yielded a Kd of 9.29 µM.
